{"source": "paper PMC5558906", "binders": {"B1": {"name": "A40 (ssRNA)", "RNA": "AAAAAAAAAAAAAAAAAAAAAAAAAAAAAAAAAAAAAAAA"}, "B2": {"name": "U10 in CA repeats (ssRNA)", "RNA": "GCACACACACACACACACACAUUUUUUUUUUCACACACACACACACACACA"}, "B3": {"name": "U40 (ssRNA)", "RNA": "UUUUUUUUUUUUUUUUUUUUUUUUUUUUUUUUUUUUUUUU"}}, "assay_in_all_cases": "EMSA", "key": {"eIF4G1 [1]": {"target": "T1, eIF4G1 (Saccharomyces cerevisiae, UniProt P39935 1-952)", "T1 sequence": "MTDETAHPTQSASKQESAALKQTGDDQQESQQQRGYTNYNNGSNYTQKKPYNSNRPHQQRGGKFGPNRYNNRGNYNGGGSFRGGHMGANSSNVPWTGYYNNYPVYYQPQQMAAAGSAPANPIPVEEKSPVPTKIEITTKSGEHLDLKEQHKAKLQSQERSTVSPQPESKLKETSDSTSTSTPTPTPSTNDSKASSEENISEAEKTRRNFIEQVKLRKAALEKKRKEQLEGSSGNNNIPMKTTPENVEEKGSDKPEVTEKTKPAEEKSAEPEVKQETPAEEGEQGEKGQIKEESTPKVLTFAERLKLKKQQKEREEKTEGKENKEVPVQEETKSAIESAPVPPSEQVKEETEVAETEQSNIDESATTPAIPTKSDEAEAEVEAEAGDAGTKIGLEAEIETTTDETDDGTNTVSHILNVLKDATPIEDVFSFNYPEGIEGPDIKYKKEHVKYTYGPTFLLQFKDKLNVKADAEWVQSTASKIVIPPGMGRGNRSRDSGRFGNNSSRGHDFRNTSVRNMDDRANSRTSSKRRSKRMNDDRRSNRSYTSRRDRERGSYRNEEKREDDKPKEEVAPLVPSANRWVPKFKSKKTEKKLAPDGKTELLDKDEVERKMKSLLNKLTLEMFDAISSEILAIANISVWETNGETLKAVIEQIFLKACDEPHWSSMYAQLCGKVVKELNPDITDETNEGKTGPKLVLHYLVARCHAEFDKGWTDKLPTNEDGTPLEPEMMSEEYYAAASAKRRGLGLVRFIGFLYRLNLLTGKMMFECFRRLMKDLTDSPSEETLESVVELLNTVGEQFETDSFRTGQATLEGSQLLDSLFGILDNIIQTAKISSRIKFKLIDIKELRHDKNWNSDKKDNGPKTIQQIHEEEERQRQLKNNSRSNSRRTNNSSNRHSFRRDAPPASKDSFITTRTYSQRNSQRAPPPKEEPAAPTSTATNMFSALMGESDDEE"}, "eIF4G1 [2]": {"target": "T1, eIF4G1", "remark": "listed apart in the source"}, "eIF4G1 [3]": {"target": "T1, eIF4G1", "remark": "listed apart in the source"}}, "note": "Read-outs that look alike come from different tables or passages of the source."}
{"binder": "B1", "values": [{"measurement": "binding signal", "setting": "eIF4G1 [1]", "value": 17, "unit": "fold weaker than U40"}]}
{"binder": "B2", "values": [{"measurement": "binding result", "setting": "eIF4G1 [2]", "value": "binds"}]}
{"binder": "B3", "values": [{"measurement": "binding signal", "setting": "eIF4G1 [3]", "value": 17, "unit": "fold tighter than A40"}]}
